Reference: patent publication US7094407B2, “Fusion peptide containing human type-1 collagen derived peptide, preparation thereof, and skin anti-aging cosmetic composition comprising the same” (LG Household & Health Care Ltd., priority 2002, dated 2006)

Assays:
human fibroblast = assay: Collagen synthesis effects test; format: cell-based; conditions: summary statement of test results
Description: In order to measure the usefulness of the Tat-human Type-collagen DP prepared in Example 1 as a skin anti-aging agent, it was tested by comparing the preparation with ascorbic acid, which is known to be a material having an exceptional collagen synthesis effect.
In this test, a human fibroblast of the same number was cultured on a 24-well plate for 24 hours, and the sample as a concentration of 10^−4 to 10^−7 was applied thereto. After 2 hours, proline introduced tridium was applied thereto and a resulting mixture was cultured for 24 hours. Next, an amount of collagen newly-synthesized and newly-secreted from fibroblast was measured a cpm (count per minute) of proline introduced tridium using a medium, and an amount of csp (collagenous sensitive protein) was calculated. A comparative measurement of the collagen synthesis effect was then performed (David F. W. and Wilson Harvey, Analytical Biochemistry (1979); 96, 220 224, Atsushi Hatamochi, Masashi Ono, Hiroaki Ueki, and Masayoshi Namba., J. Invest Dermatol. (1991) 96, 473 477).

[1] = test system: wrinkles on the outer corners of the eyes (crow's-feet); assay: Anti-aging effects, O/W emulsion applied to crow's-feet of human subjects; format: in vivo; conditions: 29 women in their thirties, 3 months, one time each day
Description: In order to examine anti-aging effects of the Tat-human Type-collagen DP prepared in Example 1, an O/W emulsion comprising the compound of Chemical Formula 1 of the present invention and a control were each applied to human subjects. In particular, the O/W emulsion and control were coated on wrinkles on the outer corners of the eyes (i.e., crow's-feet) of 29 women in their thirties. Application was performed for 3 months, one time each day. Visual observation of anti-aging effects, if any, was performed and ranked according to a scale of four possibilities—no improvement, little improvement, medium improvement, and significant improvement.

[2] = Transdermal absorption (penetration into skin cells) test, Franz cell; format: in vitro ADME; conditions: nude mouse back skin 1.7 cm^2, 24 hours, HPLC and LC mass
Description: Penetration of a compound, agent, etc. into skin cells is commonly referred to as transdermal absorption, and this will be the term used herein. The transdermal absorption test was conducted using the fusion peptide prepared in Example 1 (Reference: Lehman P A, Slattery J T, Franz T J. Percutaneous absorption of retinoids: Influence of vehicle, light exposure, and dose, J. Invest Dermatol., 91; 56–61. 1998).
Specifically, skin on the back of a female nude mouse 8 weeks of age was cut to a specific depth and to an area of 1.7 cm^2, and the fusion peptide was applied thereto. After 24 hours, the receptor solution and material absorbed in the skin in the back of the mouse were extracted with a transdermal absorption measuring instrument (Franz cell), and quantitatively analyzed using high performance liquid chromatography (HPLC) and liquid chromatography mass (LC mass) techniques. That is, these techniques were used to measure the amount of the compound of Chemical Formula 1 of the present invention that underwent transdermal absorption. […] Example 5: Allergy Test of a Tat-human Type-I collagen DP fusion peptide (LLNA)(SEQ ID NO: 10)

Balb/c mice = assay: Allergy test (LLNA, murine local lymph node assay); format: in vivo, mouse; conditions: 0.5% and 1.0% solutions in ethanol, 50 μl to both ears for 3 days, [3H]-methylthymidine; versus control
Description: An experiment using ethanol as a carrier was selected for a safety test of the compound of Chemical Formula 1 when used as a cosmetic raw material [Reference: Kimber (1990): Identification of contact allergens using the murinelocal lymph node assay, J. Appl. Toxicol. 10(3); 173–180]. A control that uses cosmetic material for an anti-aging agent and the compound of Chemical Formula 1 were prepared in 0.5% and 1.0% solutions. 50 μl of the solution was applied to both ears of Balb/c mice for 3 days, and then the auricular lymph nodes were removed from the mice. The lymph nodes were pulverized to a monocell state, and radioisotope [3H]-methylthymidine was added thereto, after which a resulting material was cultured for 24 hours. Subsequently, amplification of cells (dpm, disintegrations per minute) was measured using a β-scintillation counter (Beckman LS 6000 TA, USA).

guinea pigs = assay: Skin irritation patch test; format: in vivo, guinea pig; conditions: O/W emulsion, 48 hours closed patch
Description: In order to test skin irritation of the compound of Chemical Formula 1, a patch test using guinea pigs was conducted [Reference: Draize, J. H. (1959): Dermal toxicity. Assoc. Food and Drug Officials, US. Appraisal of the safety of chemicals in Food, Drugs, and Cosmetics., pp 46–59, Texas State Dept. of Health, Austin, Tex. Federal Register (1973): Method of testing primary irritant substances 38(187): pp 1500–1541]. The compound represented by Chemical Formula 1 was prepared in an O/W emulsion of various concentrations. Fur on the back of the guinea pigs where the sample was to be coated was removed, and the area was allowed to adapt to the surroundings for 24 hours in order to minimize skin irritation that may be caused by the removal of the fur.
Next, a sample coating region was established (1.5 cm×1.5 cm), a sample and gauze were applied thereto, and the coated region was sealed with a thin paper of solid material in order to prevent loss, after which the sealing material was held firmly in place with an elastic bandage. The guinea pigs were maintained in this state for 48 hours then all the applied materials were removed. At two different time periods of 2 hours and 24 hours after removal of the closed patch (50 hours and 72 hours after patch application), the degree of irritation was determined and indicated by an irritation index (P11: primary cutaneous irritation index) and by an irritation degree scale.

V79-4 cells = assay: Cytotoxicity MTT test; format: cell-based, Chinese hamster
Description: In order to identify the safety of the compound of Chemical Formula 1 when used as a cosmetic raw material, V79–4 cells (Chinese hamster, continuous cell line of lung tissue fibroblast) were cultured and an MTT test was conducted to test cytotoxicity for the compound [Reference: Mossaman T. (1983). Rapid colorimetric assay for cellular growth & survival: application to proliferation & cytotoxicity assays. Journal of Immunological Methods 65, 55–63).

KKKKKKKKKKTKS (Tat-human Type-I collagen DP fusion peptide)
synthesis of collagen and hyaluronic acid (human fibroblast): superior synthesis of collagen and hyaluronic acid
anti-aging effects on crow's-feet (visual observation) [1]: exhibits anti-aging effects on crow's-feet
transdermal absorption capability [2]: superior transdermal absorption capability
possibility of allergy induction (Balb/c mice): lower possibility of allergy induction than the control
Irritation Degree (guinea pigs; Concentration 0.01 %): Minute irritation
Irritation Index (PII) (guinea pigs; Concentration 0.01 %): 0.52
Irritation Degree (guinea pigs; Concentration 0.1 %): Minute irritation
Irritation Index (PII) (guinea pigs; Concentration 0.1 %): 0.53
Irritation Degree (guinea pigs; Concentration 0.5 %): Minute irritation
Irritation Index (PII) (guinea pigs; Concentration 0.5 %): 0.53
cytotoxicity (MTT) (V79-4 cells; concentration of 0.01 or less): negligent level of toxicity
cytotoxicity (MTT) (V79-4 cells; concentration of 0.1 (%, w.v) or more): very weak toxicity
